A word on the IC50: it is the midpoint of a concentration-inhibition curve.

Square brackets hold non-standard residues; d marks the D form. Ends that are not written are not given here. * marks the point of attachment. Trp(6-Br) = N[C@@H](Cc1c[nH]c2cc(Br)ccc12)C(=O)O; Trp(6-Cl) = N[C@@H](Cc1c[nH]c2cc(Cl)ccc12)C(=O)O; Trp(6-F) = N[C@@H](Cc1c[nH]c2cc(F)ccc12)C(=O)O; Trp(6-Me) = Cc1ccc2c(C[C@H](N)C(=O)O)c[nH]c2c1; hArg = N=C(N)NCCCC[C@H](N)C(=O)O; Pentanoyl = CCCCC(=O)*

The target of one test is T1, His-tagged PCSK9Δhelix (human, UniProt Q8NBP7 31-152; Q8NBP7 168-692).
T1 construct: Construct M1-Q692 with engineered TEV site, cut by TEV protease; new N-terminus of the catalytic domain is S-A168; also called His-PCSK9Δhelix
T1 sequence (Q8NBP7 31-152, stated change not applied, chain 1 of 2): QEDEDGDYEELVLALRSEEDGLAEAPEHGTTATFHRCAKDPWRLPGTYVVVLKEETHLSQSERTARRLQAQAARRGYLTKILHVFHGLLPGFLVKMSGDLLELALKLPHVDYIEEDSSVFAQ
T1 sequence (Q8NBP7 other isoform, or with tags, fused parts or gaps mutant, chain 2 of 2): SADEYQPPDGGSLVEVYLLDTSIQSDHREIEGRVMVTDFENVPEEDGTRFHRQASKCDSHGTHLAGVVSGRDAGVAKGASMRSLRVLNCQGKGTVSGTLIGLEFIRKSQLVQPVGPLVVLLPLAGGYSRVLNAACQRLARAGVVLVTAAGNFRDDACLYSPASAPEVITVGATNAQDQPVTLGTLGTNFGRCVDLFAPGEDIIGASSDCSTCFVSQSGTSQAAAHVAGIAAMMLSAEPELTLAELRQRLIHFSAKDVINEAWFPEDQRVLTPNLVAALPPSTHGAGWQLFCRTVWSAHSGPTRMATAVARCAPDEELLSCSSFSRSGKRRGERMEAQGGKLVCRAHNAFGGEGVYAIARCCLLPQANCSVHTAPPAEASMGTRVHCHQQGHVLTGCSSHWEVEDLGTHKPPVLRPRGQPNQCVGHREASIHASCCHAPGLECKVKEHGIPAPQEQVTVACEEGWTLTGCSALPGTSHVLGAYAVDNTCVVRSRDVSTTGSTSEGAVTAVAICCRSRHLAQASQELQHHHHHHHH
The test is described as follows: TR-FRET competition; His-PCSK9Δhelix, competitor Ab20. In general terms: TR-FRET usually uses a lanthanide donor and a delayed reading to cut background.

Test [1] has as its target T2, His-tagged, full-length PCSK9 (human, UniProt Q8NBP7 31-692).
T2 construct: The secreted protein is autocleaved into a prodomain and a catalytic/Cys-rich chain that starts at S153; also called His-PCSK9
Description: TR-FRET competition; His-PCSK9, competitor EGF(A)-Fc.
Description: (§1) Signal generation in the PCSK9 binding assays was dependent upon the binding interaction to bring into close proximity the His-tag on the PCSK9 and the Fc-tag on the ligand. Anti-His-APC was bound to the His-tag, and anti-Fc-europium was bound to the Fc-tag.
(§2) Compounds were solubilized and dilutions were prepared in DMSO. […] The plate was centrifuged to mix the well contents and allowed to incubate for 30 min. […] The normalized TR-FRET ratios were plotted as a function of the compound concentrations, and the IC₅₀ values were determined using a 4-parameter logistic regression.

T2 sequence (Q8NBP7 other isoform, or with tags, fused parts or gaps limits assumed): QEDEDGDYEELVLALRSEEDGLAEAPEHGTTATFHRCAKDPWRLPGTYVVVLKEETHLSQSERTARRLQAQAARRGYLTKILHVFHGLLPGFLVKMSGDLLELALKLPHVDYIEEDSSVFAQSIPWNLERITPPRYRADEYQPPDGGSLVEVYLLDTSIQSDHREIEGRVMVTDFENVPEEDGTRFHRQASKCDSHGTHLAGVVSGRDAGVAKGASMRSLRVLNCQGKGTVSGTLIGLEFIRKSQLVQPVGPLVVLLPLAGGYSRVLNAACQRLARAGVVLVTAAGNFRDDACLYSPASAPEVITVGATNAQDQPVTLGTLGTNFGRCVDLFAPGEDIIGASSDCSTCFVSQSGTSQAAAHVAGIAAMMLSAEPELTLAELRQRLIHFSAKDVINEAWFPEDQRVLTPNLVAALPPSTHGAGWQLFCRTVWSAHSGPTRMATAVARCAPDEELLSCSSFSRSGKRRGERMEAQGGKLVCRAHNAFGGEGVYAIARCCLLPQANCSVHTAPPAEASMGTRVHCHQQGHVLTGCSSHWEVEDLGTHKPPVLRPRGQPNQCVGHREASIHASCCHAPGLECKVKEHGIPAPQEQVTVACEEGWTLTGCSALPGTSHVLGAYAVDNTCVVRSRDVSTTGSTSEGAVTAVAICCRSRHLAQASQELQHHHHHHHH
Description for His-tagged PCSK9Δhelix: as §1, §2

For the molecule Ac-MDSFPGWNLVRIGLLR-NH2 [Compound 153], the half-maximal inhibitory concentration (IC50) amounted to 50 µM in the test with His-tagged PCSK9Δhelix and 12 µM in test [1].
For WNLVRIGLLR (also: further groups not given here, Structure printed only as a drawing) [Compound 150], the IC50 with His-tagged PCSK9Δhelix came to 8.2 µM; in test [1], 22 µM.
Taken in the same sequence, the figures for WNLVRIGLLR (also: further groups not given here, Structure printed only as a drawing) [Compound 132] were 9 µM and at least 50 µM.
Taken in the same sequence, the figures for WNLVRIGLLR (also: further groups not given here, Structure printed only as a drawing) [Compound 144] were 4 µM and 9.7 µM.
For WNLVRIGLLR (also: further groups not given here, Structure printed only as a drawing) [Compound 143], in that order: 23 µM and at least 50 µM.

B1: Compound 186 (peptide)
peptide: Pentanoyl-[Trp(6-Cl)]NLVRIGLTR-NH2
SMILES: CCCCC(=O)N[C@@H](Cc1c[nH]c2cc(Cl)ccc12)C(=O)N[C@@H](CC(N)=O)C(=O)N[C@@H](CC(C)C)C(=O)N[C@H](C(=O)N[C@@H](CCCNC(=N)N)C(=O)N[C@H](C(=O)NCC(=O)N[C@@H](CC(C)C)C(=O)N[C@H](C(=O)N[C@@H](CCCNC(=N)N)C(N)=O)[C@@H](C)O)[C@@H](C)CC)C(C)C
As for B1, the IC50 came out at 11 µM in the test with His-tagged PCSK9Δhelix and 31 µM in test [1].
For WNLVRIGLLR (also: further groups not given here, Structure printed only as a drawing) [Compound 130], in that order: 8.6 µM and at least 50 µM.
Regarding WNLVRIGLLR (also: further groups not given here, Structure printed only as a drawing) [Compound 131], the figures for the IC50 (with His-tagged PCSK9Δhelix; in test [1]) were 6.7 µM and at least 50 µM, respectively.
In the case of Ac-DSYPGWNLVRIGLLR-NH2 [Compound 155], the results for the IC50 (with His-tagged PCSK9Δhelix; in test [1]) were 50 µM and 11 µM, respectively.
For the molecule Ac-ESYPGWNLVRIGLLR-NH2 [Compound 156], the IC50 with His-tagged PCSK9Δhelix turned out to be 50 µM; in test [1], 11 µM.
Taken in the same sequence, the figures for Ac-DLMPWNLKRIGLLR-NH2 [Compound 158] were 12 µM and at least 50 µM.
For WNLVRIGLLR (also: further groups not given here, Structure printed only as a drawing) [Compound 139], in that order: 19 µM and at least 50 µM.
Taken in the same sequence, the figures for WNLVRIGLLR (also: further groups not given here, Structure printed only as a drawing) [Compound 149] were 8.9 µM and 11 µM.
Consider WNLVRIGLLR (also: further groups not given here, Structure printed only as a drawing) [Compound 134], for which the IC50 was 4.2 µM with His-tagged PCSK9Δhelix and at least 50 µM in test [1].

B2: Compound 175 (peptide)
peptide: Pentanoyl-[Trp(6-Me)]NLVRIGLTR-NH2
SMILES: CCCCC(=O)N[C@@H](Cc1c[nH]c2cc(C)ccc12)C(=O)N[C@@H](CC(N)=O)C(=O)N[C@@H](CC(C)C)C(=O)N[C@H](C(=O)N[C@@H](CCCNC(=N)N)C(=O)N[C@H](C(=O)NCC(=O)N[C@@H](CC(C)C)C(=O)N[C@H](C(=O)N[C@@H](CCCNC(=N)N)C(N)=O)[C@@H](C)O)[C@@H](C)CC)C(C)C
Turning to B2, the IC50 with His-tagged PCSK9Δhelix was 39 µM; in test [1] it was at least 50 µM.
For the molecule WNLVRIGLLR (also: further groups not given here, Structure printed only as a drawing) [Compound 142], the IC50 in the test with His-tagged PCSK9Δhelix is 15 µM; in test [1], at least 50 µM.
In the case of WNLVRIGLLR (also: further groups not given here, Structure printed only as a drawing) [Compound 135], the IC50 with His-tagged PCSK9Δhelix is 10 µM; in test [1], at least 50 µM.
For WNLVRIGLLR (also: further groups not given here, Structure printed only as a drawing) [Compound 145], in that order: 2.2 µM and 7.3 µM.
In the case of WNLVRIGLLR (also: further groups not given here, Structure printed only as a drawing) [Compound 148], the IC50 in the test with His-tagged PCSK9Δhelix amounted to 11 µM; in test [1] it was 19 µM.
Turning to Pentanoyl-WNLVRIGLLR [Compound 152], the IC50 with His-tagged PCSK9Δhelix was determined as 14 µM; in test [1] it was 43 µM.
Regarding Ac-DLMPWNLVRIGLPR-NH2 [Compound 160], the IC50 with His-tagged PCSK9Δhelix was 19 µM; in test [1] it was at least 50 µM.
Taken in the same sequence, the figures for WNLVRIGLLR (also: further groups not given here, Structure printed only as a drawing) [Compound 138] were 4.9 µM and 48 µM.
For WNLVRIGLLR (also: further groups not given here, Structure printed only as a drawing) [Compound 146], the 50% inhibitory concentration (IC50) with His-tagged PCSK9Δhelix turned out to be 1.7 µM; in test [1] it was 11 µM.
Taken in the same sequence, the figures for WNLVRIGLLR (also: further groups not given here, Structure printed only as a drawing) [Compound 137] were 6.7 µM and at least 50 µM.

B3: Compound 174 (peptide)
peptide: Pentanoyl-[Trp(6-F)]NLVRIGLTR-NH2
SMILES: CCCCC(=O)N[C@@H](Cc1c[nH]c2cc(F)ccc12)C(=O)N[C@@H](CC(N)=O)C(=O)N[C@@H](CC(C)C)C(=O)N[C@H](C(=O)N[C@@H](CCCNC(=N)N)C(=O)N[C@H](C(=O)NCC(=O)N[C@@H](CC(C)C)C(=O)N[C@H](C(=O)N[C@@H](CCCNC(=N)N)C(N)=O)[C@@H](C)O)[C@@H](C)CC)C(C)C
Regarding B3, the IC50 in the test with His-tagged PCSK9Δhelix was 6.2 µM; in test [1], at least 50 µM.
Taken in the same sequence, the figures for WNLVRIGLLR (also: further groups not given here, Structure printed only as a drawing) [Compound 147] were 0.41 µM and 2.6 µM.
Taken in the same sequence, the figures for WNLVRIGLLR (also: further groups not given here, Structure printed only as a drawing) [Compound 136] were 9 µM and at least 50 µM.

B4: Compound 187 (peptide)
peptide: Pentanoyl-[Trp(6-Br)]NLVRIGLTR-NH2
SMILES: CCCCC(=O)N[C@@H](Cc1c[nH]c2cc(Br)ccc12)C(=O)N[C@@H](CC(N)=O)C(=O)N[C@@H](CC(C)C)C(=O)N[C@H](C(=O)N[C@@H](CCCNC(=N)N)C(=O)N[C@H](C(=O)NCC(=O)N[C@@H](CC(C)C)C(=O)N[C@H](C(=O)N[C@@H](CCCNC(=N)N)C(N)=O)[C@@H](C)O)[C@@H](C)CC)C(C)C
With B4, the IC50 with His-tagged PCSK9Δhelix came to 36 µM; in test [1], 26 µM.
Regarding WNLVRIGLLR (also: further groups not given here, Structure printed only as a drawing) [Compound 141], the concentration for half-maximal inhibition (IC50) with His-tagged PCSK9Δhelix was 36 µM; in test [1], at least 50 µM.
For Ac-SFAFPGWNLVRIGLLR-NH2 [Compound 154], in that order: 50 µM and 11 µM.
In the case of WNLVRIGLLR (also: further groups not given here, Structure printed only as a drawing) [Compound 140], the figures for the IC50 (in the test with His-tagged PCSK9Δhelix; in test [1]) were 26 µM and at least 50 µM, respectively.

B5: Compound 191 (peptide)
peptide: Pentanoyl-WNLV[hArg]IGLLR-NH2
notes: also called n-BuC(O)-WNLV(homoR)IGLLR-NH2
Consider B5, for which the IC50 is 1.3 µM in the test with His-tagged PCSK9Δhelix and at least 50 µM in test [1].

B6: Compound 234 (peptide)
peptide: Pentanoyl-WNLV[hArg]IGLTR-NH2
SMILES: CCCCC(=O)N[C@@H](Cc1c[nH]c2ccccc12)C(=O)N[C@@H](CC(N)=O)C(=O)N[C@@H](CC(C)C)C(=O)N[C@H](C(=O)N[C@@H](CCCCNC(=N)N)C(=O)N[C@H](C(=O)NCC(=O)N[C@@H](CC(C)C)C(=O)N[C@H](C(=O)N[C@@H](CCCNC(=N)N)C(N)=O)[C@@H](C)O)[C@@H](C)CC)C(C)C
notes: also called n-BuC(O)-WNLV(homoR)IGLTR-NH2
On to B6, for which the values for the IC50 (with His-tagged PCSK9Δhelix; in test [1]) were 1.4 µM and at least 50 µM, respectively.
For Pentanoyl-WNLV[hArg]IGLTR (also called n-BuC(O)-WNLV(homoR)IGLTR) [Compound 235], in that order: 2.7 µM and at least 50 µM.
For WNLVRIGLLR (also: further groups not given here, Structure printed only as a drawing) [Compound 151], in that order: 2.5 µM and 6.9 µM.
On to WNLVRIGLLR (also: further groups not given here, Structure printed only as a drawing) [Compound 133], for which the IC50 was 17 µM with His-tagged PCSK9Δhelix and at least 50 µM in test [1].
